Experimental data from paper PMC5095700.

Substrate: N[C@@H]1[C@@H](O)[C@H](O)[C@@H](CO)O[C@H]1O
Experiment: purified protein
Format: biochemical, Clostridium acetobutylicum
Conditions: CoA C-terminal domain active site, Trp […], Glu […], Asp […]

B1: Glucosamine/glucosaminide N-acetyltransferase (GlmA) (Clostridium acetobutylicum ATCC 824) (protein)
chain: MEIKETYDFSSIVDLWNKNIGTVYPMNLELFKQNYINDRQRKKIMGAFNGEILIGFVIYKQWTYKSGSLKPNHKIGYINSIIVDINFRHQGIGTKLLDAAEEELINSGVKILRCGSDTYHFFPGIPLECLPSEEFFLVRGYKMQDYFYDLIGDVSKVDFKKPSIKDGFKVNVMKPEDRKGLFEFLEKSFSGRWLEEFIEFFQVGMKERDIVLIKYKTSVIGFSHIYDNKSSFIGPPIYWKALLGHNYGGLGPIGIDKTYRKQGLGRLLLYESLQILKKREVKKMVIDWTEKDIINFYGRFNFMPWKAYRKATKEVKDGKG
Work on B1 yielded a Km of 210 ± 20 µM.
